The nature of this series: label from the status in PepcDB records.

As to “MKKRLSLDRRFLPYIKKAGGVLVKKQMGAYVSLAAAMAIVGSSVVVGKLMVERIPVFLSSGLRFLIASVVLLMLLFCIEKGFPALTKKDVFVLLVQSFTGVFLFSICLLYGVQYTTGTESGILTSTTPMLIGILSFFLLREKIEKKTLIGILLAVCGVMAINLFGAGSQDGTPHALFGNMLIIAAVIGEALFTLMAKLLSPHISALAISTFVSLFGFLFFLPFALFEASSFDYSVPTVLDWSYVLYYALFVTVLAFYLWYSGVTKVPAGVSGIFTSVLPVSAVILSGVILKEPFEFVHFIGIACVIGGIFVTVIKKKQPDAYPAAEEKTL”, the protein production entry is “failed”.

On to “MKKSLCLSFFLTFSNPLQALVIELLEEIKTSPHKGTFKAKVLDSKKPRQVLGVYNISPHKKLTLTITHISTAIVYQPLDEKLSLETTLNPNRPTIPRNTQIVFSSKELKESHPHQMPSLNAPMQKPQNKPHSSQQPSQNFSYPEPKLGSKNSKNSLLQPLAIPSKISPTNETQTPTNDTKPPLKHSSEDQESNLFITPPTEKTLPNNTSNADISENNESNENKDNVEKQAIRDANIKEFACGKWVYDDENLQAYRPSILKRVDEDKQTATDITPCDYSTAENKSGKIITPYTKISVHKTEPLEEPQTFEAKNNFAILQARSSTEKCKRARARKDGTTRQCYLIEEPLKQAWESEYEITTQLVKAIYERPKQDDQVEPTFYETSELAYSSTRKSEITHNELNLNEKFMEFVEVYEGHYLNDIIKESSEYKEWVKNHVRFKEGVCMALEIEEQPRAKSTPLSIENSRVVCVKKGNYLFNEV”, for which the protein production result is on record as “failed”.

In the case of “MKKSLDEHAERFSDHADAYDEDQDSAAYRACVNFVVDHAAPESDDVVLDLGTGTGAIAFALASDAAEIIGRDISDGMLEKAREKADGRGVENVSFGDGRFRAPNVDRPVDIVTSNFAMHHLGDDEKREAIDTIADLGPRRIVLGDVMLFGDDDPDAPFYSPEVDDPATVGVLADAFTDAGYALTAVEMVTEQAGVLVAERVKSDLEHHHHHH”, the protein production result is recorded as “not failed”.

For “MKKSLVVCALSAAVLLSGCETVNTTSGGVVGVDRKQSMFSMVSSAEVNQSYAQSYQQTLGEASSQGVLDKTSANAKRLQVIANRLIAQAPTFRPDCAQWKWEVNLIKSDELNANCGPGGKIIFYSGLIEKLKLTDDEIAAVMGHEIAHALREHGREAMSKQYAVGAGKQIATLFGVPQETVALGDNGVNLLMTLPNSRENENEADLIGLELAARAGYNPNAAISLWNKMGQAAGGSAPPEFMSTHPASTSRIASLQAAIPKVMPLYQAAKKSLEHHHHHH”, the protein production result is “failed”.

For “MKKTLILGATPETNRYAYLAAERLKSHGHEFIPVGRKKGEVLGKTIINERPVIEGVDTVTLYINPQNQLSEYNYILSLKPKRVIFNPGTENEELEEILSENGIEPVIGCTLVMLSAGT”, the protein production entry is on record as “failed”.

“MKKTTLALSALALSLGLALSPLSATAAETSSATTAQQMPSLAPMLEKVMPSVVSINVEGSTTVNTPRMPRNFQQFFGDDSPFCQEGSPFQSSPFCQGGQGGNGGGQQQKFMALGSGVIIDADKGYVVTNNHVVDNATVIKVQLSDGRKFDAKMVGKDPRSDIALIQIQNPKNLTAIKMADSDALRVGDYTVAIGNPFGLGETVTSGIVSALGRSGLNAENYENFIQTDAAINRGNSGGALVNLNGELIGINTAILAPDGGNIGIGFAIPSNMVKNLTSQMVEYGQVKRGELGIMGTELNSELAKAMKVDAQRGAFVSQVLPNSSAAKAGIKAGDVITSLNGKPISSFAALRAQVGTMPVGSKLTLGLLRDGKQVNVNLELQQSSQNQVDSSSIFNGIEGAEMSNKGKDQGVVVNNVKTGTPAAQIGLKKGDVIIGANQQAVKNIAELRKVLDSKPSVLALNIQRGDSTIYLLMQ”: the protein production result is reported as “failed”.

In the case of “MKKVIAGLAAASVVGVAVPGMDSAQAQVSNEALKEINGQTQTQTTVTETKTVETKSDLKYTVTADVLNVRSGAGTGHSVISKVKQGQVLQVIGQENGWFKVTVNGQTGYVSGDFVTTGGKTGTTVQQGTGTYTVNVSSLNVRTGPSTSHTVLGSVNKGKTVQVVSEVQDWFKINFNGGTGYVSKDFVTKGGSAVSNQTQQPTTNNNTTTVQTGGSYVVNTGALKVRTGPATYNAVIGGVTNGTVLNVTGAENGWYKINHNGRTGYVSADFVKFVKGGVNNVTNNVQQPVKDVQKPTTGGNTSSIAGFARSLNGSPYRTAGTTPAGFDCSGFIHYVLNQTGHKGARQTVAGYWSSKTKTSNPQPGDLVYFQNTYKSGPSHMGVYLGNGQFISAETDATGVRISSVSNSYWSKHLLGYTKAYLEHHHHHH”, the protein production entry is “failed”.

Regarding “MKKVRFLLLAAMVAMFTGCQKEVAEQELDNNKPTPTGDTRIIIEGEGMIGPVTRSSDGKVEFEGGYATGAGLYNGDAQPKVAAHPDAGYEVNYFYGGPENELHRYDYAQSGSSTFDVKLKGEDHTFRCGFKEKKRNLTVNTGTGGSVSPAGTNSYRVEKAISITATPDSGYEFAGWTITEGDVTIENPGSPATTATLHNDNSTITANFKSGAELVFTVRASANKIVPMPVLGSGPYIIDYGDGTVAQEVDLRAPGYTQYPGSYHTYSADGEYTVTIKGPAATAFSFRGTRNSDLQYTNPCPAKSILKNTIDISCVTSLENAFSGMKSLESIKCDLFESCKGRVTTCANIFDQCTNLHTIYNGLFEGFDKCTDFSLAFHYTALNSIPANTFRGCSSAVKFNSTFSAIPNILSIPAGLFDDCVNAQEFASTFELLNISTVPERLFAKCVKATFFRGTFRQSHVTTVPGNVFENCRAIENVSSCFENCSWITSLPEMWNTSLYPKIKTYNAFAKNCNKASNYSAVPAAWK”, the protein production result was “failed”.

On to “MKKWRFLGIDDSFDDRKCCVVGCVTCGGYVEGFLYTEIDIDGLDATDKLISMVRRSKFREQIKCIFLPGITLGGFNLVDIQRVYRETKIPVVVVMRRKPDMEEFDSAMRNLENYELRRKIVEVAGEIHRIGDIYIQTAGLTPSEAEKLVKASLIKGNMPEPVRISHLVASAIIHGESR”, for which the protein production result is “not failed”.

For “MKKYFLKCGYFLVCFCLPLIVFANPKTDNERFFIRLSQAPLAQTLEQLAFQQDVNLVIGDILENKISLKLNNIDMPRLLQIIAKSKHLTLNKDDGIYYLNGSQSGKGQVAGNLTTNEPHLVSHTVKLHFAKASELMKSLTTGSGSLLSPAGSITFDDRSNLLVIQDEPRSVQNIKKLIAEMDKPIEQIAIEARIVTITDESLKELGVRWGIFNPTENARRVAGSLTGNSFENIADNLNVNFATTTTPAGSIALQVAKINGRLLDLELSALERENNVEIIASPRLLTTNKKSASIKQGTEIPYIVSNTRNDTQSVEFREAVLGLEVTPHISKDNNILLDLLVSQNSPGSRVAYGQNEVVSIDKQEINTQVFAKDGETIVLGGVFHDTITKSEDKVPLLGDIPVIKRLFSKESERHQKRELVIFVTPHILKAGETLEALKQKSEGKKLEHHHHHH”, the protein production result is “failed”.

As to “MKLAASLNRLSPKRLFRTKSKASVSRSEPSSFSSNASSSSSDGSYGNLKQGPTATPISVLPQNSGDFYTELVQAFKLIDRDDDGVVSRGDLAALISRLSHEPPSQEEVSLMLREVDGGDGGCISLEDLASRVAGTSGEGSVETEELREVFEIFDVDRNGKISAEELHRVFGVIGDERCTLEECMRMIATVDGNGDGFVCFDDFCRMMVPAMNDHHH”, the protein production result is on record as “failed”.

As for “MKLAIVTACPGGQVTSVLAARLLRGAAERLGWETCVEANAGSRPEGELSAEQIAEADWVLLVGVEPLAAARFVGKPVYRARPAEALADPRAFLQRAAALASVEVAGDEAGLVAPEAGAAPRIVAVTACPTGVAHTFMAAEALQLAAGQLGFALQVETQGSVGARNPLDPADIAAADVVLLAADIDVDTARFAGKKIYRCGTGVALKQARATLERALAEGQVESAGAASAVVARDEKRGVYKHL”, the protein production result was “failed”.

In the case of “MKLAVISSIYKNDSLSKIKQSLQSLLNQENVTCDIYLYCDGPVSIDIVHFLDSFDQNSLYIFKQEQNRGLAHALNELLNIVLTKEYEYIARMDADDISMPERFVKQIAFMNSHPDIDCLGTWAIEIDDDGKEYFRKKMPITHEECLELFKKRDCMIHPTVMFRRSYFEKAGLYPEDTYFGEDTMMWAKGFKSGCKFANVPEYLFKFRLDSNFFERRRGWKHAKSIYTLRHRVNRMLGFGWKEDCYALLYAMAKLMPKSILDIIYKTVR”, the protein production entry was “failed”.

Take “MKLERFYRDTILLTMSNFATGILKFIFSVILSEKLGAEGVGLYQLIMPVYDLFCCLVCGGLNIAVSRKVAILSGKNDYSNVNSLIKISSLFCFIWSSLVAVILFFNSRFISNSFIKDMRSLYSLELICPALIFVTISAILKGYFYGISKAKVPAYIDILEKASRVGIVIAIINIFMLKSISKTVTAVYGVLSLGEFISLIALYIAFLIYRRNLRPVYSDRESSGQLIFDVFSVSIPLCINSFVSSLLAAASTLILPVRLVHAGFLHSEALSLIGKFSGMALIVTSFPVVIIVAMSTVLIPEISQNLNKRDYYSIEKRVTQVLKISFFLGTITMIIALSIPNLLGKLFFSRNDLGNYIAASALSVPVDYTSFATFSILSGLGKQNKLLINSLIVSIEQLILLYVLTGIRFINIYGYAITLFVTCLTAYILNMKEIRKVCYIRFSFVDMFIDTLLCILVYLILSILNNIVPNRFILPKTLFIIILGFVLFTFAITKIKDKLK”: the protein production entry is “failed”.

Turning to “MKLFFTDGQFAVAGYSRPDVPFLCDAEMELVDAPNRYLRYIATVKGRTRAANTWRTYGAALYEFFAFLEANGLAWDRVDQSQIAAWRDTMLERGCARSTVNQRLRTVDAFYNWAKSNGMTHSIPFDRTDVWVAKPRGFLAHVDASGDRFEANSLTVQTHKVTPQFLHLDRAIRFLDALTPYRMRLMGYLALLTGMRREEVVSMDCRVLPNPAGRDSNKQIPMHLDPSITPTKGEKDRTVMLPYDLAVALYQYFTFERSRLLAKHRAKFGIETTLLFLSQTGDPLSVNGLNNAFRRVSQKTGIWCTPHMLRHTFGTYELMRMSRQKTQTQALLWVRDRMGHNSITTTEIYVHAADLVEHDDVDGYHLDICRALAHGNPTSKT”, the protein production result is reported as “failed”.

In the case of “MKLICYILLILLIPAIPVGAQTLSGGQVQVSNQSILISDNGQVMIGMDITLPAAMELSSNCVATLTPVLKTQDNSYNRILPAIWVYGRIRSIVQQRERSIPSDAYTILRRKNGTEQTVNYSARIPYEKWMNGAELELQAAIRGCADCQKEENSAFITRANLERYVVKPVVAFVSPAVEAVKNRAEEGRAYLDFPVNQMNIYPDYRRNPSELAAIKHTVDVVKNDVNTTITEIAIVGYASPEGRYAANARLAQGRAEALKSYVMNEYGFKADLFKVNSVPEDWAGLRAYVAKNDLPLKEEILSIIDKNESDFDVKEERIKALDGGKVYAALLQDCYPALRHSDYTVRYVVRGFDVEEAKQIIKLRPQQLSLQEMFLVAQTYEKGSDEFNEVFDVAVRMFPDDPTANINAAAIELQRGDLQQAVRYLDKADAQASATLNNRGVLKLLQGDLDSAENYFKQAQAKDSVEAGANLEEVTNKRKDEAIFVK”, the protein production entry was “failed”.

For the sequence “MKLIDLHVHSYHSDGVLAPAVLVAMAAERGLASLAIADHDAVDGIDEAVAEGVRLGVDVIPAVELSVELGRFSDLHILGYCIDHHDPAFRDKLAGFRSARDNRGKAILEKINRRLLHSRKAPLSYDEVLSMAGGAVGRPHIGRVLVDNGYARDMEDAFRRYLIPCNVPKRYMPAGEAIAEIRRIGGVSVLAHPPTITDDRRRLRQVVEQLAQLGLDGLEVFNNLCFKDDMLYLERLAEEFGLLMTGGSDFHGFEDDVELGRGRGGLAVAHSLAEKVKELAAQRKHSHA”, the protein production result is “failed”.

In the case of “MKLINKSIPSIRLSEFISEIEDCLAATFYGDTFWITTEISDVNKKPDKRWCYLKLIEKEGKNVTAEIGAVFWTPGYAYIEKFEKETKQLFKDGLEITCRVKVTFHKRWGLKLEIVEIDYAYTLGKLEAERQETLDRLVKENPDYVRLVGEQYYTFNKSLPLPAVVQRIALITAPESDGQRDFRQELGNNPYGYAFHVDEFVTQIQGDKAHEFIIGKLLLIEAQKEKYDVVAIVRGGGSQLDLKAFDAYDLAQRIASFPVPILTGIGHDRNTSIADLMARQEKTPTKVANVIIQRNFQFEQTVLILKERMVHTVDGLFTNAKNNLKEIKRFVKASNPLTILKKGFAIVKQDNVIITDPSAIDVGTEIQIQFDKETVQSTVTKKKKNGK”, the protein production entry is given as “failed”.

Values taken from a protein production outcome set (Wang et al. 2014).
